# B1: dps EMSA transcript (ssRNA)
# RNA: GGGUUAAUUACUGGGACAUAACAUCAAGAGGAUAUGAAAUUAUGAGUACCGC
# Target: CsrA-His6 (Escherichia coli, UniProt P69913 1-61)
# Experiment: EMSA; 10 mM Mg2+; apparent KD, cooperative equation; single shift; EMSA: 0.5 nM RNA, 10 mM MgCl2, 100 mM KCl, 32.5 ng yeast RNA, 20 mM DTT, 7.5% glycerol, 4 U SUPERasin, 37 C 30 min (pH not stated); footprint: 2 nM RNA, 10 mM Tris-HCl pH 7.5, 10 mM MgCl2, 100 mM KCl, 40 ng yeast RNA, 7.5% glycerol, 37 C
# Conditions: protein: recombinant; tags: His6 (C-terminal per name); chain copies: 2; label: 5'-32P
# CsrA-His6, sequence (P69913 whole entry): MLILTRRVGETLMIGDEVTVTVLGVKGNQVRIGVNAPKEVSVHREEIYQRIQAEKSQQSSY
binder,measurement,value
B1,Kd,25 nM

# — PMC6686035, “Regulation of Iron Storage by CsrA Supports Exponential Growth of Escherichia coli”
